Laboratory results published in patent US20160279196A1 (published 2016).

Legend:
[1] = target: T1, SSX-3 peptide on HLA-A*02:01 (human); assay: cytokine release
T1 peptide: KVSEKIVYV

[2] = target: T2, SSX-4 peptide on HLA-A*02:01 (human); assay: cytokine release
T2 peptide: KSSEKIVYV

[3] = target: T3, SSX-5 peptide on HLA-A*02:01 (human); assay: cytokine release
T3 peptide: KASEKIIYV

[4] = target: T4, SSX-9 peptide on HLA-A*02:01 (human); assay: cytokine release
T4 peptide: KSSEKIIYV

[5] = target: T5, SSX-10 peptide on HLA-A*02:01 (human); assay: cytokine release
T5 peptide: KASEKILYV

[6] = target: T6, SSX-1; SSX-8 peptide on HLA-A*02:01 (human); assay: cytokine release
T6 peptide: KYSEKISYV

[7] = target: T7, SSX-6 peptide on HLA-A*02:01 (human); assay: cytokine release
T7 peptide: KFSEKISCV

[8] = target: T8, SSX-7 peptide on HLA-A*02:01 (human); assay: cytokine release
T8 peptide: KSLEKISYV

[9] = target: T9, SSX-2 peptide on HLA-A*02:01 (human); assay: multimer staining
T9 peptide: KASEKIFYV

binding result [1]: recognises | binding result [2]: recognises | binding result [3]: recognises | binding result [4]: recognises | binding result [5]: recognises | binding result [6]: no recognition | binding result [7]: no recognition | binding result [8]: no recognition | binding result [9]: recognises
B1: SSX-2 TCR (TCR, V domains shown)
Valpha: AQKITQTQPGMFVQEKEAVTLDCTYDTSDPSYGLFWYKQPSSGEMIFLIYQGSYDQQNATEGRYSLNFQKARKSANLVISASQLGDSAMYFCAMTSGFGNEKLTFGTGTRLTIIP
Vbeta: DAMVIQNPRYQVTQFGKPVTLSCSQTLNHNVMYWYQQKSSQAPKLLFHYYDKDFNNEADTPDNFQSRRPNTSFCFLDIRSPGLGDAAMYLCATSRGQGGQPQHFGDGTRLSIL
